Reference: paper doi:10.1101/2024.01.16.575974, “Structural insights into peptidoglycan hydrolysis by the FtsEX system in Escherichia coli during cell division” (bioRxiv, 2024)
Residue numbers refer to the chain shown, from its start. Names and notes keep the numbering of the source.

B1: Escherichia coli EnvC (EcoEnvCΔ34) (natural protein, UniProt P37690 35-419, looked up)
chain: DERDQLKSIQADIAAKERAVRQKQQQRASLLAQLKKQEEAISEATRKLRETQNTLNQLNKQIDEMNASIAKLEQQKAAQERSLAAQLDAAFRQGEHTGIQLILSGEESQRGQRLQAYFGYLNQARQETIAQLKQTREEVAMQRAELEEKQSEQQTLLYEQRAQQAKLTQALNERKKTLAGLESSIQQGQQQLSELRANESRLRNSIARAEAAAKARAEREAREAQAVRDRQKEATRKGTTYKPTESEKSLMSRTGGLGAPRGQAFWPVRGPTLHRYGEQLQGELRWKGMVIGASEGTEVKAIADGRVILADWLQGYGLVVVVEHGKGDMSLYGYNQSALVSVGSQVRAGQPIALVGSSGGQGRPSLYFEIRRQGQAVNPQPWLGR
B2: Escherichia coli FtsE E163Q mutant, His-tagged (natural protein, Escherichia coli (str. K-12, MG1655), UniProt P0A9R7 1-222, looked up)
chain: MIRFEHVSKAYLGGRQALQGVTFHMQPGEMAFLTGHSGAGKSTLLKLICGIERPSAGKIWFSGHDITRLKNREVPFLRRQIGMIFQDHHLLMDRTVYDNVAIPLIIAGASGDDIRRRVSAALDKVGLLDKAKNFPIQLSGGEQQRVGIARAVVNKPAVLLADQPTGNLDDALSEGILRLFEEFNRVGVTVLMATHDINLISRRSYRMLTLSDGHLHGGVGHE
notes: FtsE, Escherichia coli str; K-12 MG1655, full length, with E163Q (cannot hydrolyse ATP); Made with the QuikChange kit on pTD68 [PT7::his6-FtsEX]; also called FtsE mutant (E163Q); ATPase mutant; source: E. coli BL21(DE3) pLysS, co-expressed with FtsX, purified (DDM, TALON, peptidiscs, SEC) with ATP; not shown: His6, N-terminal, kept
B3: Escherichia coli FtsX, full length (natural protein, Escherichia coli (str. K-12, MG1655), UniProt P0AC30 1-352, looked up)
chain: MNKRDAINHIRQFGGRLDRFRKSVGGSGDGGRNAPKRAKSSPKPVNRKTNVFNEQVRYAFHGALQDLKSKPFATFLTVMVIAISLTLPSVCYMVYKNVNQAATQYYPSPQITVYLQKTLDDDAAAGVVAQLQAEQGVEKVNYLSREDALGEFRNWSGFGGALDMLEENPLPAVAVVIPKLDFQGTESLNTLRDRITQINGIDEVRMDDSWFARLAALTGLVGRVSAMIGVLMVAAVFLVIGNSVRLSIFARRDSINVQKLIGATDGFILRPFLYGGALLGFSGALLSLILSEILVLRLSSAVAEVAQVFGTKFDINGLSFDECLLLLLVCSMIGWVAAWLATVQHLRHFTPE
notes: FtsX, Escherichia coli str; K-12 MG1655, full length; residues 1-52 not resolved in the maps; Two copies stand in the FtsEX complex; also called EcoFtsX; TMD

Tests used:
[1] = target: T1, Escherichia coli FtsEX complex (wild type) in peptidiscs (Escherichia coli (str. K-12, MG1655), UniProt P0A9R7 1-222; P0AC30 1-352); experiment: cell-based or functional assay
T1 sequence (looked up) 1: B2 chain with Q163E
T1 sequence (looked up) 2: B3 chain

[2] = target: the molecule itself; experiment: cryo-EM structure; FtsE^E163QX in peptidiscs incubated with EnvC, 2 mM ATP-Mg2+, 8 min at 37°C before freezing
[3] = target: the molecule itself; experiment: cryo-EM structure; WT EcoFtsEX in peptidiscs, 3 mM ATPγS, 2 mM Mg2+, incubated 8 min at 37°C before freezing
[4] = target: B1; experiment: cryo-EM structure; FtsE^E163QX in peptidiscs incubated with EnvC, 2 mM ATP-Mg2+, 8 min at 37°C before freezing; details: both partners purified

B1
fold increase of Vmax of ATP hydrolysis with EnvC over FtsEX alone [1]: ~2.2 fold

B2
binding result [2]: binds

B3
binding result [3]: binds
binding result [4]: binds
